From PMC11131964, “Enantioselective transformation of phytoplankton-derived dihydroxypropanesulfonate by marine bacteria” (The ISME Journal, 2024) come the findings set out here.

Data set [1] has as its target T1, RpHpsP (S-DHPS dehydrogenase HpsP, SPO0596) (Ruegeria pomeroyi, UniProt Q5LVU9).
T1 sequence (Q5LVU9 1-332): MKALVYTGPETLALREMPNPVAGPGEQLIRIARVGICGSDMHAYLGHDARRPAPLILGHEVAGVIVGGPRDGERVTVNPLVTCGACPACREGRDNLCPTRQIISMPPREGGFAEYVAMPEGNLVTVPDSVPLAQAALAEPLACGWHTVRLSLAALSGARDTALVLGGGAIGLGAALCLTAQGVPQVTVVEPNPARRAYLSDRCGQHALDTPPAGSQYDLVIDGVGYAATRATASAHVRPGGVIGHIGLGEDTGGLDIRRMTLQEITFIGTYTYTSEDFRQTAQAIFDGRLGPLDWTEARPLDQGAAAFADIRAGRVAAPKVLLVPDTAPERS
Description: SPR (Biacore T200, CM5 chip); also NADH formation assay. It is filed as binding.

Data set [2] addresses T2, RpHpsN (R-DHPS dehydrogenase HpsN, SPO0594) (Ruegeria pomeroyi, UniProt Q5LVV1).
T2 sequence (Q5LVV1 1-435): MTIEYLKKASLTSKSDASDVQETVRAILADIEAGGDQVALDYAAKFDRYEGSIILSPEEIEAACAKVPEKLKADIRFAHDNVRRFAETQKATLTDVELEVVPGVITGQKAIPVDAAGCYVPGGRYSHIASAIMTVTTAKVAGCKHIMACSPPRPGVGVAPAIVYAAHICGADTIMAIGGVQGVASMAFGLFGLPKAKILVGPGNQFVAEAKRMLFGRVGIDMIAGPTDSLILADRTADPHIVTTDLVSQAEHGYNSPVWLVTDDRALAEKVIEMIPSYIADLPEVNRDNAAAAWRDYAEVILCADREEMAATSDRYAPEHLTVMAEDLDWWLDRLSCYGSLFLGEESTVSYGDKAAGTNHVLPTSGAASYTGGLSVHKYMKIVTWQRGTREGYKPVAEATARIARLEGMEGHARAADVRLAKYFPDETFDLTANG
Description: SPR (Biacore T200, CM5 chip); also NADH formation assay, Km […]. It is filed as binding.

Data set [3] deals with T3, RpHpsO (R-DHPS dehydrogenase HpsO, SPO0595) (Ruegeria pomeroyi, UniProt Q5LVV0).
T3 sequence (Q5LVV0 1-253): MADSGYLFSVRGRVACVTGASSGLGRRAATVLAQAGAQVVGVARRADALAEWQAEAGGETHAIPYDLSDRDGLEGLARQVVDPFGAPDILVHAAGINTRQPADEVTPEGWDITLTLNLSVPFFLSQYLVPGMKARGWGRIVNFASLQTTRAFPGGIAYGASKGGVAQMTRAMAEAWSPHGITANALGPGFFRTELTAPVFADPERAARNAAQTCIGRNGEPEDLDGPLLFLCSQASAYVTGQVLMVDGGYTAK
Described as above. It is filed as binding.

Data set [4] concerns the target HpsP from Dinoroseobacter shibae DFL 12 (S-DHPS dehydrogenase) (Dinoroseobacter shibae DFL 12) (UniProt A8LJR6). Description: crystal structure; DsHpsP alone, crystallised at 18°C in 0.2 M sodium formate, 18% PEG 3350; 2.3 Å; oligomer seen in the asymmetric unit.
Substrate in data set [5]: N[C@H](CO)Cc1c[nH]cn1
The experiment in a line: Michaelis-Menten kinetics of purified enzyme (Km). Type of data set: biochemical, Escherichia coli.

Data set [6] concerns the molecule itself. The experiment in a line: crystal structure; RpHpsO alone, crystallised at 20°C in 0.1 M sodium citrate pH 5.4, 0.8 M sodium formate; 1.7 Å; oligomer seen in the asymmetric unit.
Substrate in data set [7]: OC[C@@H](O)[C@@H](O)[C@H](O)[C@@H](O)CO
The experiment in a line: Michaelis-Menten kinetics of purified enzyme (Km). It is filed as biochemical, Bacillus subtilis.

Data set [8] concerns the molecule itself. The experiment in a line: crystal structure; RpHpsN alone, crystallised at 18°C in 0.1 M Tris pH 7.5, 1.1 M ammonium sulfate; 2.9 Å; oligomer seen in the asymmetric unit.

As usually defined, the Kd is the constant that tells how readily two partners part at equilibrium. Lower therefore signals a tighter complex. Usually stoichiometry N stands for a count of units in the complex or per binding partner. One may read the Km as the concentration of substrate that gives half-maximal velocity. One may read the kcat as the maximal rate divided by the concentration of active sites. In general, kcat/Km refers to the second-order rate constant that governs catalysis at low substrate concentration.

`O=S(=O)(O)C[C@@H](O)CO` [S-DHPS]: the Kd in data set [1] amounted to 740 µM.

For `O=S(=O)(O)C[C@H](O)CO` [R-DHPS], the Kd in data set [2] is 860 µM; in data set [3], 330 µM.

For “HpsP from Dinoroseobacter shibae DFL 12 (S-DHPS dehydrogenase) (from UniProt A8LJR6 1-512) (enzyme)”, the stoichiometry N in data set [4] stood at 4.

B1: L-histidinol dehydrogenase (Escherichia coli K-12) (protein)
chain: SFNTIIDWNSCTAEQQRQLLMRPAISASESITRTVNDILDNVKARGDEALREYSAKFDKTTVTALKVSAEEIAAASERLSDELKQAMAVAVKNIETFHTAQKLPPVDVETQPGVRCQQVTRPVASVGLYIPGGSAPLFSTVLMLATPASIAGCKKVVLCSPPPIADEILYAAQLCGVQDVFNVGGAQAIAALAFGTESVPKVDKIFGPGNAFVTEAKRQVSQRLDGAAIDMPAGPSEVLVIADSGATPDFVASDLLSQAEHGPDSQVILLTPAADMARRVAEAVERQLAELPRAETARQALNASRLIVTKDLAQCVEISNQYGPEHLIIQTRNARELVDSITSAGSVFLGDWSPESAGDYASGTNHVLPTYGYTATCSSLGLADFQKRMTVQELSKEGFSALASTIETLAAAERLTAHKNAVTLRVNALKEQA
Take B1: in data set [5], the Km was 9.37 ± 3.63 mM, the turnover number (kcat) is 0.042 ± 0.022 s⁻¹ and the kcat/Km turned out to be 4 ± 2 M⁻¹ s⁻¹.

B2: HpsO from Ruegeria pomeroyi DSS-3 (R-DHPS dehydrogenase) (enzyme)
chain: T3 sequence (Q5LVV0 1-253)
notes: HpsO, R-DHPS dehydrogenase of the short chain dehydrogenase/reductase family, Ruegeria pomeroyi DSS-3, locus tag SPO0595; Wild type; also called RpHpsO; SPO0595; source: E. coli BL21(DE3), pET28a, purified (HisTrap HP, Superdex 200 gel filtration)
With B2, in data set [6], the “stoichiometry N” value was 4.

B3: D-sorbitol dehydrogenase (Bsubs1_010100003458) (Bacillus subtilis subsp. subtilis str. 168) (protein)
chain: THTVPQNMKAAVMHNTREIKIETLPVPDINHDEVLIKVMAVGICGSDLHYYTNGRIGNYVVEKPFILGHECAGEIAAVGSSVDQFKVGDRVAVEPGVTCGRCEACKEGRYNLCPDVQFLATPPVDGAFVQYIKMRQDFVFLIPDSLSYEEAALIEPFSVGIHAAARTKLQPGSTIAIMGMGPVGLMAVAAAKAFGAGTIIVTDLEPLRLEAAKKMGATHIINIREQDALEEIKTITNDRGVDVAWETAGNPAALQSALASVRRGGKLAIVGLPSQNEIPLNVPFIADNEIDIYGIFRYANTYPKGIEFLASGIVDTKHLVTDQYSLEQTQDAMERALQFKNECLKVMVYPNR
As for B3, in data set [7], the Km is 32.35 ± 3.59 mM, the kcat was determined as 0.027 ± 0.001 s⁻¹ and the kcat/Km is 0.83 ± 0.045 M⁻¹ s⁻¹.

B4: HpsN from Ruegeria pomeroyi DSS-3 (R-DHPS dehydrogenase) (enzyme)
chain: MTIEYLKKASLTSKSDASDVQETVRAILADIEAGGDQVALDYAAKFDRYEGSIILSPEEIEAACAKVPEKLKADIRFAHDNVRRFAETQKATLTDVELEVVPGVITGQKAIPVDAAGCYVPGGRYSHIASAIMTVTTAKVAGCKHIMACSPPRPGVGVAPAIVYAAHICGADTIMAIGGVQGVASMAFGLFGLPKAKILVGPGNQFVAEAKRMLFGRVGIDMIAGPTDSLILADRTADPHIVTTDLVSQAEHGYNSPVWLVTDDRALAEKVIEMIPSYIADLPEVNRDNAAAAWRDYAEVILCADREEMAATSDRYAPEHLTVMAEDLDWWLDRLSCYGSLFLGEESTVSYGDKAAGTNHVLPTSGAASYTGGLSVHKYMKIVTWQRGTREGYKPVAEATARIARLE
notes: HpsN, R-DHPS dehydrogenase (sulfopropanediol 3-dehydrogenase) of the aldehyde dehydrogenase superfamily, Ruegeria pomeroyi DSS-3, locus tag SPO0594; Wild type; Val218-Gly225 and Thr348-Leu374 lack electron density in the crystal structure; also called RpHpsN; SPO0594; source: E. coli BL21(DE3), pET28a, purified (HisTrap HP, Superdex 200 gel filtration)
On to B4, for which the “stoichiometry N” value in data set [8] was 4.
